Source: patent US20250109212A1
Like-named read-outs stand apart in the source and are kept apart here.

Legend:
[1] = target: full length human CD47 (NCBI #NP_942088.1) on 293F-CD47 cells (human) (UniProt Q08722); assay: cell-based blocking FACS on 293F-CD47 cells, blocked ligand biotin-labeled human CD172a-Fc, MFI
[2] = target: full length human CD47 (NCBI #NP_942088.1) on 293F-CD47 cells (human) (UniProt Q08722); assay: FACS on 293F-CD47 cells, detection with goat anti-human IgG (Fc)-PE, MFI
[3] = target: full length human CD47 (NCBI #NP_942088.1) on 293F-CD47 cells (human) (UniProt Q08722); assay: cell-based blocking FACS on 293F-CD47 cells, blocked ligand biotin-labeled human CD172a-Fc, MFI; remark: listed apart in the source

SIRPα-isoform2-Fc (Fc fusion)
IC50 [1]: 1.9 nM | EC50 [2]: 1.72 nM | IC50 [3]: 3.25 nM
